From the supplement of paper PMC9112550, “Optimization of the antimicrobial peptide Bac7 by deep mutational scanning” (BMC Biology, 2022) come the findings set out here.
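Also: peptides expressed intracellularly from a pBAD plasmid library in pooled LB shake-flask culture, induced with 0.3% L-arabinose, DNA abundance read by NGS, three biological replicates, DESeq2 with apeglm shrinkage.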

The data set deals with Escherichia coli TOP10. Nature of the data set: shrunken log2 fold change of peptide-encoding DNA abundance (4.5 h post-induction vs induction); higher = less antimicrobial activity (less host growth inhibition). The following applies: time post-induction: 4.5 h; library: site-saturation at positions 5, 18, 19, 20.
For the sequence RRIRDRPPRLPRPRPRPKCPPRP, the “shrunken log2 fold change” value was determined as 0.149.

In the case of RRIRYRPPRLPRPRPRPNVGPRP, the “shrunken log2 fold change” value was -0.00664.

As to RRIRCRPPRLPRPRPRPSPYPRP, the “shrunken log2 fold change” value is -0.302.

On to RRIRFRPPRLPRPRPRPTWVPRP, for which the “shrunken log2 fold change” value is 0.156.

Regarding RRIRFRPPRLPRPRPRPPGSPRP, the “shrunken log2 fold change” value was 0.238.

On to RRIRRRPPRLPRPRPRPDRNPRP, for which the “shrunken log2 fold change” value was 0.00393.

RRIRNRPPRLPRPRPRPYFAPRP: the “shrunken log2 fold change” value was -0.198.

Turning to RRIRHRPPRLPRPRPRPAHCPRP, the “shrunken log2 fold change” value is 0.115.

On to RRIRVRPPRLPRPRPRPNCHPRP, for which the “shrunken log2 fold change” value is -0.201.

As to RRIRWRPPRLPRPRPRPDCMPRP, the “shrunken log2 fold change” value is 0.259.

Turning to RRIRMRPPRLPRPRPRPEQRPRP, the “shrunken log2 fold change” value stood at 2.55.

With RRIRHRPPRLPRPRPRPLWIPRP, the “shrunken log2 fold change” value was -0.505.

In the case of RRIRKRPPRLPRPRPRPFMNPRP, the “shrunken log2 fold change” value is -0.0366.

Regarding RRIRRRPPRLPRPRPRPVSQPRP, the “shrunken log2 fold change” value worked out at 0.264.

RRIRDRPPRLPRPRPRPSTMPRP: the “shrunken log2 fold change” value amounted to 0.0367.

As to RRIRCRPPRLPRPRPRPYIGPRP, the “shrunken log2 fold change” value was -1.24.

With RRIRTRPPRLPRPRPRPPWWPRP, the “shrunken log2 fold change” value came out at 0.928.

With RRIRSRPPRLPRPRPRPSHSPRP, the “shrunken log2 fold change” value was -0.706.

Take RRIRMRPPRLPRPRPRPHMHPRP: the “shrunken log2 fold change” value was determined as 0.00917.

On to RRIRSRPPRLPRPRPRPYMMPRP, for which the “shrunken log2 fold change” value is -0.36.

On to RRIRLRPPRLPRPRPRPAICPRP, for which the “shrunken log2 fold change” value came out at 0.207.

Take RRIRQRPPRLPRPRPRPCCMPRP: the “shrunken log2 fold change” value was -0.42.

As for RRIRARPPRLPRPRPRPYLVPRP, the “shrunken log2 fold change” value worked out at 0.0333.

For the sequence RRIRDRPPRLPRPRPRPQQEPRP, the “shrunken log2 fold change” value worked out at 0.00606.

As to RRIRDRPPRLPRPRPRPQSYPRP, the “shrunken log2 fold change” value is -0.495.

On to RRIRVRPPRLPRPRPRPEKGPRP, for which the “shrunken log2 fold change” value was -0.09.

As to RRIRARPPRLPRPRPRPSPFPRP, the “shrunken log2 fold change” value is 0.0195.

Consider RRIRWRPPRLPRPRPRPGHPPRP, for which the “shrunken log2 fold change” value amounted to 0.0932.

RRIRARPPRLPRPRPRPCDEPRP: the “shrunken log2 fold change” value was 0.085.

Turning to RRIRIRPPRLPRPRPRPIANPRP, the “shrunken log2 fold change” value was -0.0104.

As for RRIRMRPPRLPRPRPRPHDMPRP, the “shrunken log2 fold change” value turned out to be 0.0059.

In the case of RRIRERPPRLPRPRPRPALKPRP, the “shrunken log2 fold change” value was 0.4.

As to RRIRLRPPRLPRPRPRPLPHPRP, the “shrunken log2 fold change” value is -0.309.

As to RRIRYRPPRLPRPRPRPQWIPRP, the “shrunken log2 fold change” value worked out at 0.00701.

For RRIRSRPPRLPRPRPRPCQSPRP, the “shrunken log2 fold change” value is -0.01.

As to RRIRHRPPRLPRPRPRPPFHPRP, the “shrunken log2 fold change” value is -0.119.

Take RRIRRRPPRLPRPRPRPKNIPRP: the “shrunken log2 fold change” value was -0.136.

Consider RRIRYRPPRLPRPRPRPNDIPRP, for which the “shrunken log2 fold change” value was -0.299.

With RRIRSRPPRLPRPRPRPYRMPRP, the “shrunken log2 fold change” value is -0.0162.

For RRIRFRPPRLPRPRPRPIIEPRP, the “shrunken log2 fold change” value was -0.747.

For RRIRMRPPRLPRPRPRPKTEPRP, the “shrunken log2 fold change” value was found to be 0.155.

As for RRIRIRPPRLPRPRPRPTIHPRP, the “shrunken log2 fold change” value was -0.592.

In the case of RRIRIRPPRLPRPRPRPCEKPRP, the “shrunken log2 fold change” value was -0.626.

Take RRIRKRPPRLPRPRPRPLWVPRP: the “shrunken log2 fold change” value was found to be 0.0688.

On to RRIRQRPPRLPRPRPRPQSRPRP, for which the “shrunken log2 fold change” value amounted to 0.00465.

Consider RRIRCRPPRLPRPRPRPDSQPRP, for which the “shrunken log2 fold change” value is -0.203.

RRIRERPPRLPRPRPRPPSVPRP: the “shrunken log2 fold change” value is -0.126.

In the case of RRIRWRPPRLPRPRPRPAYKPRP, the “shrunken log2 fold change” value is -0.182.

For the sequence RRIRRRPPRLPRPRPRPPEVPRP, the “shrunken log2 fold change” value was determined as 0.821.

Take RRIRERPPRLPRPRPRPTGCPRP: the “shrunken log2 fold change” value was found to be 0.155.

In the case of RRIRTRPPRLPRPRPRPVEGPRP, the “shrunken log2 fold change” value was -0.194.

In the case of RRIRWRPPRLPRPRPRPFGGPRP, the “shrunken log2 fold change” value is 0.0764.

With RRIRFRPPRLPRPRPRPTGQPRP, the “shrunken log2 fold change” value was found to be 0.0488.

In the case of RRIRMRPPRLPRPRPRPQNRPRP, the “shrunken log2 fold change” value was -0.0361.

For RRIRNRPPRLPRPRPRPDPVPRP, the “shrunken log2 fold change” value was -0.137.

For RRIRPRPPRLPRPRPRPRILPRP, the “shrunken log2 fold change” value was determined as 0.0605.

Take RRIRYRPPRLPRPRPRPRSFPRP: the “shrunken log2 fold change” value was -0.0868.

Regarding RRIRKRPPRLPRPRPRPRHEPRP, the “shrunken log2 fold change” value is -0.115.

Regarding RRIRPRPPRLPRPRPRPQRGPRP, the “shrunken log2 fold change” value turned out to be 0.251.

In the case of RRIRSRPPRLPRPRPRPSESPRP, the “shrunken log2 fold change” value was -0.198.

As to RRIRHRPPRLPRPRPRPWIFPRP, the “shrunken log2 fold change” value was -0.332.

As to RRIRRRPPRLPRPRPRPNVDPRP, the “shrunken log2 fold change” value is -0.125.

For the sequence RRIRERPPRLPRPRPRPMTAPRP, the “shrunken log2 fold change” value was -0.0417.

RRIRGRPPRLPRPRPRPIGLPRP: the “shrunken log2 fold change” value is 0.19.

As for RRIRIRPPRLPRPRPRPWAKPRP, the “shrunken log2 fold change” value is -0.235.

With RRIRFRPPRLPRPRPRPCSTPRP, the “shrunken log2 fold change” value was -0.177.

Consider RRIRGRPPRLPRPRPRPVPIPRP, for which the “shrunken log2 fold change” value worked out at 0.372.

On to RRIRERPPRLPRPRPRPEGWPRP, for which the “shrunken log2 fold change” value was determined as 0.668.

Consider RRIRRRPPRLPRPRPRPLNNPRP, for which the “shrunken log2 fold change” value is -0.338.

For the sequence RRIRVRPPRLPRPRPRPGYMPRP, the “shrunken log2 fold change” value was -0.37.

As to RRIRGRPPRLPRPRPRPPSIPRP, the “shrunken log2 fold change” value was determined as 0.519.

On to RRIRKRPPRLPRPRPRPRTAPRP, for which the “shrunken log2 fold change” value was 0.843.

Regarding RRIRYRPPRLPRPRPRPIHNPRP, the “shrunken log2 fold change” value was -0.438.

RRIRKRPPRLPRPRPRPNQAPRP: the “shrunken log2 fold change” value was -0.171.

In the case of RRIRPRPPRLPRPRPRPTNKPRP, the “shrunken log2 fold change” value is -0.208.

On to RRIRNRPPRLPRPRPRPSQEPRP, for which the “shrunken log2 fold change” value was found to be 0.299.

As for RRIRSRPPRLPRPRPRPSAGPRP, the “shrunken log2 fold change” value turned out to be 0.191.

Turning to RRIRPRPPRLPRPRPRPFKGPRP, the “shrunken log2 fold change” value was -0.209.

Regarding RRIRLRPPRLPRPRPRPNMGPRP, the “shrunken log2 fold change” value is -0.25.

For the sequence RRIRWRPPRLPRPRPRPVSCPRP, the “shrunken log2 fold change” value is 0.0517.

As for RRIRQRPPRLPRPRPRPDDWPRP, the “shrunken log2 fold change” value was 0.0952.

On to RRIRVRPPRLPRPRPRPKDYPRP, for which the “shrunken log2 fold change” value is -0.366.

With RRIRNRPPRLPRPRPRPVNKPRP, the “shrunken log2 fold change” value was -0.19.

For RRIRMRPPRLPRPRPRPDGPPRP, the “shrunken log2 fold change” value came to 0.0285.

On to RRIRYRPPRLPRPRPRPTLWPRP, for which the “shrunken log2 fold change” value is 0.31.

In the case of RRIRCRPPRLPRPRPRPVRQPRP, the “shrunken log2 fold change” value amounted to 0.126.

For RRIRNRPPRLPRPRPRPELLPRP, the “shrunken log2 fold change” value was 0.0274.

Regarding RRIRKRPPRLPRPRPRPHQLPRP, the “shrunken log2 fold change” value amounted to 0.0824.

RRIRGRPPRLPRPRPRPRIYPRP: the “shrunken log2 fold change” value worked out at 1.15.

Turning to RRIRIRPPRLPRPRPRPPFIPRP, the “shrunken log2 fold change” value is -0.755.

With RRIRIRPPRLPRPRPRPNAYPRP, the “shrunken log2 fold change” value was -0.243.

On to RRIRVRPPRLPRPRPRPISDPRP, for which the “shrunken log2 fold change” value is -0.0883.

On to RRIRDRPPRLPRPRPRPWDWPRP, for which the “shrunken log2 fold change” value is 1.03.

In the case of RRIRSRPPRLPRPRPRPASNPRP, the “shrunken log2 fold change” value is -0.101.

As to RRIRLRPPRLPRPRPRPVLHPRP, the “shrunken log2 fold change” value was -0.024.

In the case of RRIRKRPPRLPRPRPRPNLCPRP, the “shrunken log2 fold change” value was 0.118.

In the case of RRIRCRPPRLPRPRPRPHNGPRP, the “shrunken log2 fold change” value was -1.03.

With RRIRTRPPRLPRPRPRPTKGPRP, the “shrunken log2 fold change” value is -0.183.

Take RRIRPRPPRLPRPRPRPCQAPRP: the “shrunken log2 fold change” value is 0.00851.

Regarding RRIRDRPPRLPRPRPRPCVNPRP, the “shrunken log2 fold change” value was found to be 0.0261.

Regarding RRIRHRPPRLPRPRPRPTYGPRP, the “shrunken log2 fold change” value is -0.106.

Consider RRIRTRPPRLPRPRPRPADFPRP, for which the “shrunken log2 fold change” value was found to be 0.0361.

As to RRIRPRPPRLPRPRPRPHQAPRP, the “shrunken log2 fold change” value came out at 0.0618.

As for RRIRSRPPRLPRPRPRPKTTPRP, the “shrunken log2 fold change” value amounted to 0.103.

As to RRIRARPPRLPRPRPRPWPTPRP, the “shrunken log2 fold change” value was found to be 0.703.

On to RRIRERPPRLPRPRPRPHQAPRP, for which the “shrunken log2 fold change” value came out at 0.0779.

RRIRTRPPRLPRPRPRPCNVPRP: the “shrunken log2 fold change” value was -0.00968.

As to RRIRNRPPRLPRPRPRPVKLPRP, the “shrunken log2 fold change” value is 0.032.

With RRIRIRPPRLPRPRPRPMMPPRP, the “shrunken log2 fold change” value is -0.238.

As to RRIRLRPPRLPRPRPRPLTYPRP, the “shrunken log2 fold change” value was -0.448.

Consider RRIRMRPPRLPRPRPRPHHFPRP, for which the “shrunken log2 fold change” value was -0.00112.

On to RRIRQRPPRLPRPRPRPRLEPRP, for which the “shrunken log2 fold change” value is 0.109.

Regarding RRIRKRPPRLPRPRPRPLYMPRP, the “shrunken log2 fold change” value was -0.514.

Turning to RRIRQRPPRLPRPRPRPRWMPRP, the “shrunken log2 fold change” value amounted to 0.0157.

On to RRIRCRPPRLPRPRPRPQLCPRP, for which the “shrunken log2 fold change” value amounted to 0.192.

For RRIRVRPPRLPRPRPRPMYHPRP, the “shrunken log2 fold change” value is -0.0185.

On to RRIRPRPPRLPRPRPRPLTVPRP, for which the “shrunken log2 fold change” value was -0.126.

Regarding RRIRQRPPRLPRPRPRPAMTPRP, the “shrunken log2 fold change” value came out at 0.00659.

On to RRIRIRPPRLPRPRPRPRNAPRP, for which the “shrunken log2 fold change” value is 0.0687.

On to RRIRRRPPRLPRPRPRPPRVPRP, for which the “shrunken log2 fold change” value was 1.18.

Consider RRIRARPPRLPRPRPRPQGKPRP, for which the “shrunken log2 fold change” value amounted to 0.128.

With RRIRSRPPRLPRPRPRPIGTPRP, the “shrunken log2 fold change” value is -0.25.

As for RRIRPRPPRLPRPRPRPRSIPRP, the “shrunken log2 fold change” value was -0.149.

Turning to RRIRPRPPRLPRPRPRPQNTPRP, the “shrunken log2 fold change” value was -0.407.

On to RRIRRRPPRLPRPRPRPRPKPRP, for which the “shrunken log2 fold change” value came out at 1.05.
